Reference: US20110294738A1, “PTHR1 RECEPTOR COMPOUNDS” (priority 2008, published 2011)
* marks the point of attachment. Palmitoyl = CCCCCCCCCCCCCCCC(=O)*

B1: Compound 4 (peptide)
peptide: Palmitoyl-LAYFRRLHSTR-NH2
SMILES: CCCCCCCCCCCCCCCC(=O)N[C@@H](CC(C)C)C(=O)N[C@@H](C)C(=O)N[C@@H](Cc1ccc(O)cc1)C(=O)N[C@@H](Cc1ccccc1)C(=O)N[C@@H](CCCNC(=N)N)C(=O)N[C@@H](CCCNC(=N)N)C(=O)N[C@@H](CC(C)C)C(=O)N[C@@H](Cc1c[nH]cn1)C(=O)N[C@@H](CO)C(=O)N[C@H](C(=O)N[C@@H](CCCNC(=N)N)C(N)=O)[C@@H](C)O
B2: Compound 72 (peptide)
peptide: Palmitoyl-SGRVLATKLRET-NH2
SMILES: CCCCCCCCCCCCCCCC(=O)N[C@@H](CO)C(=O)NCC(=O)N[C@@H](CCCNC(=N)N)C(=O)N[C@H](C(=O)N[C@@H](CC(C)C)C(=O)N[C@@H](C)C(=O)N[C@H](C(=O)N[C@@H](CCCCN)C(=O)N[C@@H](CC(C)C)C(=O)N[C@@H](CCCNC(=N)N)C(=O)N[C@@H](CCC(=O)O)C(=O)N[C@H](C(N)=O)[C@@H](C)O)[C@@H](C)O)C(C)C
B3: Compound 73 (peptide)
peptide: Palmitoyl-SGRVLATKLRETNA-NH2
SMILES: CCCCCCCCCCCCCCCC(=O)N[C@@H](CO)C(=O)NCC(=O)N[C@@H](CCCNC(=N)N)C(=O)N[C@H](C(=O)N[C@@H](CC(C)C)C(=O)N[C@@H](C)C(=O)N[C@H](C(=O)N[C@@H](CCCCN)C(=O)N[C@@H](CC(C)C)C(=O)N[C@@H](CCCNC(=N)N)C(=O)N[C@@H](CCC(=O)O)C(=O)N[C@H](C(=O)N[C@@H](CC(N)=O)C(=O)N[C@@H](C)C(N)=O)[C@@H](C)O)[C@@H](C)O)C(C)C
B4: Compound 74 (peptide)
peptide: Palmitoyl-SGRVLATKLRETNAGR-NH2
SMILES: CCCCCCCCCCCCCCCC(=O)N[C@@H](CO)C(=O)NCC(=O)N[C@@H](CCCNC(=N)N)C(=O)N[C@H](C(=O)N[C@@H](CC(C)C)C(=O)N[C@@H](C)C(=O)N[C@H](C(=O)N[C@@H](CCCCN)C(=O)N[C@@H](CC(C)C)C(=O)N[C@@H](CCCNC(=N)N)C(=O)N[C@@H](CCC(=O)O)C(=O)N[C@H](C(=O)N[C@@H](CC(N)=O)C(=O)N[C@@H](C)C(=O)NCC(=O)N[C@@H](CCCNC(=N)N)C(N)=O)[C@@H](C)O)[C@@H](C)O)C(C)C
B5: Compound 75 (peptide)
peptide: Palmitoyl-RVLATKLRETNAGR-NH2
SMILES: CCCCCCCCCCCCCCCC(=O)N[C@@H](CCCNC(=N)N)C(=O)N[C@H](C(=O)N[C@@H](CC(C)C)C(=O)N[C@@H](C)C(=O)N[C@H](C(=O)N[C@@H](CCCCN)C(=O)N[C@@H](CC(C)C)C(=O)N[C@@H](CCCNC(=N)N)C(=O)N[C@@H](CCC(=O)O)C(=O)N[C@H](C(=O)N[C@@H](CC(N)=O)C(=O)N[C@@H](C)C(=O)NCC(=O)N[C@@H](CCCNC(=N)N)C(N)=O)[C@@H](C)O)[C@@H](C)O)C(C)C
B6: Compound 15 (peptide)
peptide: Palmitoyl-RRLHSTRNYIHM-NH2
SMILES: CCCCCCCCCCCCCCCC(=O)N[C@@H](CCCNC(=N)N)C(=O)N[C@@H](CCCNC(=N)N)C(=O)N[C@@H](CC(C)C)C(=O)N[C@@H](Cc1c[nH]cn1)C(=O)N[C@@H](CO)C(=O)N[C@H](C(=O)N[C@@H](CCCNC(=N)N)C(=O)N[C@@H](CC(N)=O)C(=O)N[C@@H](Cc1ccc(O)cc1)C(=O)N[C@H](C(=O)N[C@@H](Cc1c[nH]cn1)C(=O)N[C@@H](CCSC)C(N)=O)[C@@H](C)CC)[C@@H](C)O
B7: Compound 16 (peptide)
peptide: Palmitoyl-RRLHSTRNYIHMHL-NH2
SMILES: CCCCCCCCCCCCCCCC(=O)N[C@@H](CCCNC(=N)N)C(=O)N[C@@H](CCCNC(=N)N)C(=O)N[C@@H](CC(C)C)C(=O)N[C@@H](Cc1c[nH]cn1)C(=O)N[C@@H](CO)C(=O)N[C@H](C(=O)N[C@@H](CCCNC(=N)N)C(=O)N[C@@H](CC(N)=O)C(=O)N[C@@H](Cc1ccc(O)cc1)C(=O)N[C@H](C(=O)N[C@@H](Cc1c[nH]cn1)C(=O)N[C@@H](CCSC)C(=O)N[C@@H](Cc1c[nH]cn1)C(=O)N[C@@H](CC(C)C)C(N)=O)[C@@H](C)CC)[C@@H](C)O
B8: Compound 17 (peptide)
peptide: Palmitoyl-SGRRLHSTRNYIHMH-NH2
SMILES: CCCCCCCCCCCCCCCC(=O)N[C@@H](CO)C(=O)NCC(=O)N[C@@H](CCCNC(=N)N)C(=O)N[C@@H](CCCNC(=N)N)C(=O)N[C@@H](CC(C)C)C(=O)N[C@@H](Cc1c[nH]cn1)C(=O)N[C@@H](CO)C(=O)N[C@H](C(=O)N[C@@H](CCCNC(=N)N)C(=O)N[C@@H](CC(N)=O)C(=O)N[C@@H](Cc1ccc(O)cc1)C(=O)N[C@H](C(=O)N[C@@H](Cc1c[nH]cn1)C(=O)N[C@@H](CCSC)C(=O)N[C@@H](Cc1c[nH]cn1)C(N)=O)[C@@H](C)CC)[C@@H](C)O
B9: Compound 41 (peptide)
peptide: Palmitoyl-GSEKKYLWGFTVF-NH2
SMILES: CCCCCCCCCCCCCCCC(=O)NCC(=O)N[C@@H](CO)C(=O)N[C@@H](CCC(=O)O)C(=O)N[C@@H](CCCCN)C(=O)N[C@@H](CCCCN)C(=O)N[C@@H](Cc1ccc(O)cc1)C(=O)N[C@@H](CC(C)C)C(=O)N[C@@H](Cc1c[nH]c2ccccc12)C(=O)NCC(=O)N[C@@H](Cc1ccccc1)C(=O)N[C@H](C(=O)N[C@H](C(=O)N[C@@H](Cc1ccccc1)C(N)=O)C(C)C)[C@@H](C)O
B10: Compound 42 (peptide)
peptide: Palmitoyl-GSEKKYLWGFT-NH2
SMILES: CCCCCCCCCCCCCCCC(=O)NCC(=O)N[C@@H](CO)C(=O)N[C@@H](CCC(=O)O)C(=O)N[C@@H](CCCCN)C(=O)N[C@@H](CCCCN)C(=O)N[C@@H](Cc1ccc(O)cc1)C(=O)N[C@@H](CC(C)C)C(=O)N[C@@H](Cc1c[nH]c2ccccc12)C(=O)NCC(=O)N[C@@H](Cc1ccccc1)C(=O)N[C@H](C(N)=O)[C@@H](C)O
B11: Compound 43 (peptide)
peptide: Palmitoyl-GSEKKYLWG-NH2
SMILES: CCCCCCCCCCCCCCCC(=O)NCC(=O)N[C@@H](CO)C(=O)N[C@@H](CCC(=O)O)C(=O)N[C@@H](CCCCN)C(=O)N[C@@H](CCCCN)C(=O)N[C@@H](Cc1ccc(O)cc1)C(=O)N[C@@H](CC(C)C)C(=O)N[C@@H](Cc1c[nH]c2ccccc12)C(=O)NCC(N)=O
B12: Compound 5 (peptide)
peptide: Palmitoyl-LAYFRRLHSTRNYIH-NH2
SMILES: CCCCCCCCCCCCCCCC(=O)N[C@@H](CC(C)C)C(=O)N[C@@H](C)C(=O)N[C@@H](Cc1ccc(O)cc1)C(=O)N[C@@H](Cc1ccccc1)C(=O)N[C@@H](CCCNC(=N)N)C(=O)N[C@@H](CCCNC(=N)N)C(=O)N[C@@H](CC(C)C)C(=O)N[C@@H](Cc1c[nH]cn1)C(=O)N[C@@H](CO)C(=O)N[C@H](C(=O)N[C@@H](CCCNC(=N)N)C(=O)N[C@@H](CC(N)=O)C(=O)N[C@@H](Cc1ccc(O)cc1)C(=O)N[C@H](C(=O)N[C@@H](Cc1c[nH]cn1)C(N)=O)[C@@H](C)CC)[C@@H](C)O
B13: Compound 96 (peptide)
peptide: Palmitoyl-EIKKSWSRWTLALDFKRKAR-NH2
SMILES: CCCCCCCCCCCCCCCC(=O)N[C@@H](CCC(=O)O)C(=O)N[C@H](C(=O)N[C@@H](CCCCN)C(=O)N[C@@H](CCCCN)C(=O)N[C@@H](CO)C(=O)N[C@@H](Cc1c[nH]c2ccccc12)C(=O)N[C@@H](CO)C(=O)N[C@@H](CCCNC(=N)N)C(=O)N[C@@H](Cc1c[nH]c2ccccc12)C(=O)N[C@H](C(=O)N[C@@H](CC(C)C)C(=O)N[C@@H](C)C(=O)N[C@@H](CC(C)C)C(=O)N[C@@H](CC(=O)O)C(=O)N[C@@H](Cc1ccccc1)C(=O)N[C@@H](CCCCN)C(=O)N[C@@H](CCCNC(=N)N)C(=O)N[C@@H](CCCCN)C(=O)N[C@@H](C)C(=O)N[C@@H](CCCNC(=N)N)C(N)=O)[C@@H](C)O)[C@@H](C)CC
B14: Compound 97 (peptide)
peptide: Palmitoyl-KKSWSRWTLALDFKRKAR-NH2
SMILES: CCCCCCCCCCCCCCCC(=O)N[C@@H](CCCCN)C(=O)N[C@@H](CCCCN)C(=O)N[C@@H](CO)C(=O)N[C@@H](Cc1c[nH]c2ccccc12)C(=O)N[C@@H](CO)C(=O)N[C@@H](CCCNC(=N)N)C(=O)N[C@@H](Cc1c[nH]c2ccccc12)C(=O)N[C@H](C(=O)N[C@@H](CC(C)C)C(=O)N[C@@H](C)C(=O)N[C@@H](CC(C)C)C(=O)N[C@@H](CC(=O)O)C(=O)N[C@@H](Cc1ccccc1)C(=O)N[C@@H](CCCCN)C(=O)N[C@@H](CCCNC(=N)N)C(=O)N[C@@H](CCCCN)C(=O)N[C@@H](C)C(=O)N[C@@H](CCCNC(=N)N)C(N)=O)[C@@H](C)O
B15: Compound 98 (peptide)
peptide: Palmitoyl-NGEVQAEIKKSWSRWTLA-NH2
SMILES: CCCCCCCCCCCCCCCC(=O)N[C@@H](CC(N)=O)C(=O)NCC(=O)N[C@@H](CCC(=O)O)C(=O)N[C@H](C(=O)N[C@@H](CCC(N)=O)C(=O)N[C@@H](C)C(=O)N[C@@H](CCC(=O)O)C(=O)N[C@H](C(=O)N[C@@H](CCCCN)C(=O)N[C@@H](CCCCN)C(=O)N[C@@H](CO)C(=O)N[C@@H](Cc1c[nH]c2ccccc12)C(=O)N[C@@H](CO)C(=O)N[C@@H](CCCNC(=N)N)C(=O)N[C@@H](Cc1c[nH]c2ccccc12)C(=O)N[C@H](C(=O)N[C@@H](CC(C)C)C(=O)N[C@@H](C)C(N)=O)[C@@H](C)O)[C@@H](C)CC)C(C)C

Molecular target: PTHR1 receptor
Sequence (P25961 whole entry): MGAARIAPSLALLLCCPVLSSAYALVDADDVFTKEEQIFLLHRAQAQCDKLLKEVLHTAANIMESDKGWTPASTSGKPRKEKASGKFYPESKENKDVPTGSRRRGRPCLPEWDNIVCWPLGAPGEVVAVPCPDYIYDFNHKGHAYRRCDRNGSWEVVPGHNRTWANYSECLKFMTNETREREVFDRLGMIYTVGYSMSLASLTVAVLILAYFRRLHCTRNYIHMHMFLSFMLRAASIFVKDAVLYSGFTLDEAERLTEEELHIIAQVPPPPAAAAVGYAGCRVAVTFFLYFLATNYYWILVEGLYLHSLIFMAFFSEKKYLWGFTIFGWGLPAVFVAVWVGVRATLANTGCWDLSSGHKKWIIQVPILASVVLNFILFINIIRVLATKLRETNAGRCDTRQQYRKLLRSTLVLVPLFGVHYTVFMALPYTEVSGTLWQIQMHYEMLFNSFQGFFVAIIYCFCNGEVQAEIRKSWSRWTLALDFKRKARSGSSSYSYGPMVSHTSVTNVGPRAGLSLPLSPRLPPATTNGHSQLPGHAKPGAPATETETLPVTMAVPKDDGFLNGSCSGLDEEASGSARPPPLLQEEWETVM

Question: For B1, which Fold Shift of EC50 is on record?
Answer: The Fold Shift of EC50 was 0.9 fold.

Question: And the Inhibition of Maximal Response?
Answer: The Inhibition of Maximal Response was -74.2%.

Question: For B2, which Fold Shift of EC50 is on record?
Answer: Its Fold Shift of EC50 is 0.7 fold.

Question: And the Inhibition of Maximal Response?
Answer: Its Inhibition of Maximal Response is 22.3%.

Question: Which Fold Shift of EC50 does the source give for B3 here?
Answer: Its Fold Shift of EC50 is 0.8 fold.

Question: And the Inhibition of Maximal Response?
Answer: Its Inhibition of Maximal Response is 32.3%.

Question: B4 was tested. Which Fold Shift of EC50 did it give?
Answer: The Fold Shift of EC50 was 1.9 fold.

Question: What about the Inhibition of Maximal Response of the same binder?
Answer: Its Inhibition of Maximal Response is 22.2%.

Question: Which Fold Shift of EC50 does the source give for B5 here?
Answer: Its Fold Shift of EC50 is 1.1 fold.

Question: What about the Inhibition of Maximal Response of the same binder?
Answer: The Inhibition of Maximal Response was 12.6%.

Question: Which Fold Shift of EC50 does the source give for B6 here?
Answer: The Fold Shift of EC50 was 1.7 fold.

Question: And the Inhibition of Maximal Response?
Answer: Its Inhibition of Maximal Response is 1.5%.

Question: With B7 as the binder, how does the Fold Shift of EC50 read?
Answer: The Fold Shift of EC50 was 2.45 fold.

Question: And the Inhibition of Maximal Response?
Answer: The Inhibition of Maximal Response was 0.0965.

Question: How did the Fold Shift of EC50 turn out when B8 was run?
Answer: Its Fold Shift of EC50 is 2.8 fold.

Question: And the Inhibition of Maximal Response?
Answer: Its Inhibition of Maximal Response is 39.4%.

Question: How did the Fold Shift of EC50 turn out when B9 was run?
Answer: The Fold Shift of EC50 was 0.9 fold.

Question: And the Inhibition of Maximal Response?
Answer: The Inhibition of Maximal Response was 17.7%.

Question: Which results are given for B10?
Answer: Fold Shift of EC50: 1.3 fold; Inhibition of Maximal Response: 40.8%

Question: What does the source list for B11?
Answer: Fold Shift of EC50: 1.4 fold; Inhibition of Maximal Response: 5.7%

Question: How did the Fold Shift of EC50 turn out when B12 was run?
Answer: The Fold Shift of EC50 was 1 fold.

Question: What about the Inhibition of Maximal Response of the same binder?
Answer: The Inhibition of Maximal Response was 13%.

Question: With B13 as the binder, how does the Fold Shift of EC50 read?
Answer: Its Fold Shift of EC50 is 1.1 fold.

Question: What about the Inhibition of Maximal Response of the same binder?
Answer: The Inhibition of Maximal Response was 7%.

Question: Which results are given for B14?
Answer: Fold Shift of EC50: 4.7 fold; Inhibition of Maximal Response: 37.2%

Question: With B15 as the binder, how does the Fold Shift of EC50 read?
Answer: Its Fold Shift of EC50 is 1 fold.

Question: And the Inhibition of Maximal Response?
Answer: The Inhibition of Maximal Response was 0.5%.
